Values belong to the binder of their own block, whether it stands above or below them.
Legend:
[1] = target: T1, mouse CLEC14A-ECD-Fc (murine CLEC14A-ECD fused to a human Fc tag) (mouse; human, UniProt Q8VCP9 22-386); test: far western blot; HEK293T lysate probed with mouse CLEC14A-ECD-Fc
T1 construct: extracellular domain; not shown: human Fc tag
T1 sequence (looked up): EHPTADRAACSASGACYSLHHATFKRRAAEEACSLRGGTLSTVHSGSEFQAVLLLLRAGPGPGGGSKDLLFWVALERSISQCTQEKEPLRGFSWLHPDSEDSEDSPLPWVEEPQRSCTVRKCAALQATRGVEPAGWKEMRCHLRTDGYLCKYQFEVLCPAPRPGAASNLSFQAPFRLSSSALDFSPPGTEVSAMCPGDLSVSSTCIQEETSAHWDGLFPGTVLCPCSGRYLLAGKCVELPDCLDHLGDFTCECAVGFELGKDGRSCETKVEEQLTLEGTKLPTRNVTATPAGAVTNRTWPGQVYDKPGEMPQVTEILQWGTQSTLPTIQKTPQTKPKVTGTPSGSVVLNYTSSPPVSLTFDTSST

[2] = target: T2, MMRN2^FL (full-length human MMRN2 with a polyhistidine (His) tag) (human, UniProt Q9H8L6 23-949); test: far western blot, non-reduced; HEK293T lysates of GFP-tagged proteins probed with MMRN2^FL-His lysate, anti-His detection
T2 construct: mature; Used as lysate of transfected HEK293T cells; Forms large multimers under non-reduced conditions; also called MMRN2 full-length; MMRN2 FL with His tag; not shown: C-terminal BirA and His tags of vector pHL-Avitag3
T2 sequence (looked up): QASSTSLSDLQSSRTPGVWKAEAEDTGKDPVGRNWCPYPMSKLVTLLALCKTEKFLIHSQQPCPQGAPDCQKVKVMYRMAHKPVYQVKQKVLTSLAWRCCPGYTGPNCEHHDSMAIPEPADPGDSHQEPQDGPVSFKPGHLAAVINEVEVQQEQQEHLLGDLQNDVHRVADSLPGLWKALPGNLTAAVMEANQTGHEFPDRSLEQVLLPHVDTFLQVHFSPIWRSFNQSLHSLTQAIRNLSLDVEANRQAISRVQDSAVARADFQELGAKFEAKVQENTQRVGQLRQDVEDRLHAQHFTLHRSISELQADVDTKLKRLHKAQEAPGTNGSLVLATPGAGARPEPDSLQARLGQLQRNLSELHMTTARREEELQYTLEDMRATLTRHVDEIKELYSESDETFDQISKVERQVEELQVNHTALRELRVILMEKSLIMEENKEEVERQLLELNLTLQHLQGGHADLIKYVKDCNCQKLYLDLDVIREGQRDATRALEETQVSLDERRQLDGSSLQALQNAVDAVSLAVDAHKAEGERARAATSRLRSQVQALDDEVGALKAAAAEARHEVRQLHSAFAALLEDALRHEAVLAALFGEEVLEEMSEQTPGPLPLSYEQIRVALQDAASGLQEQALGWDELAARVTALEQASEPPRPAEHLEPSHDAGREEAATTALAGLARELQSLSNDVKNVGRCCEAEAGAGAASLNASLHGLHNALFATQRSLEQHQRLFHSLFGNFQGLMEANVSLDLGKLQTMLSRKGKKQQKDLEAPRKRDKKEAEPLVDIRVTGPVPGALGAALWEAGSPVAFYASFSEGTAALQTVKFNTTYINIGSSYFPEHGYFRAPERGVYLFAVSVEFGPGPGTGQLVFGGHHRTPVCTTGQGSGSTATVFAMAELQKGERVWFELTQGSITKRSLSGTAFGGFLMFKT
Text: We previously identified MMRN2 as a binding partner of CLEC14A, one of the members of the C-type lectin domain (CTLD) group 14 family (4). To test whether any of the other CTLD group 14 family members also bind to MMRN2, we employed far western blotting using MMRN2 protein probe as a surrogate for a primary antibody in a standard western blot set up. The CTLD group 14 family members CLEC14A, CD93 and thrombomodulin were all constructed with a C-terminal green fluorescent protein (GFP) tag (FIG. 1A). Constructs were transfected into HEK293T cells and lysates were separated by SDS-PAGE under non-reducing conditions to keep disulphide bonds intact, then transferred to PVDF membranes and blotted using HEK293T lysates overexpressing full-length human MMRN2 with a polyhistidine (His) tag. MMRN2 protein binding was detected by staining with an anti-His tag antibody.
(§1) Whole cell protein lysates were made by incubating with lysis buffer (1% (v/v) NP40, 10 mM Tris pH7.5, 150 mM NaCl and 1 mM EDTA) and pelleting insoluble material. Standard protocols for western blotting were used. […] The epitope tag of each probed protein was detected with secondary antibody incubation (anti-His or anti-Fc HRP conjugate) and then tertiary anti-mouse HRP for the case of anti-His.

[3] = target: T1, mouse CLEC14A-ECD-Fc (murine …); test: far western blot, reduced and non-reduced
[4] = target: T3, CLEC14A-ECD-Fc (human CLEC14A extracellular domain fused to an Fc tag) (human, UniProt Q86T13 22-396); test: far western blot; HEK293T lysates probed with CLEC14A-ECD-Fc
T3 construct: Expressed in HEK293T cells; also called hCLEC14A-ECD-Fc; C14A-Fc; not shown: human IgG Fc tag
T3 sequence: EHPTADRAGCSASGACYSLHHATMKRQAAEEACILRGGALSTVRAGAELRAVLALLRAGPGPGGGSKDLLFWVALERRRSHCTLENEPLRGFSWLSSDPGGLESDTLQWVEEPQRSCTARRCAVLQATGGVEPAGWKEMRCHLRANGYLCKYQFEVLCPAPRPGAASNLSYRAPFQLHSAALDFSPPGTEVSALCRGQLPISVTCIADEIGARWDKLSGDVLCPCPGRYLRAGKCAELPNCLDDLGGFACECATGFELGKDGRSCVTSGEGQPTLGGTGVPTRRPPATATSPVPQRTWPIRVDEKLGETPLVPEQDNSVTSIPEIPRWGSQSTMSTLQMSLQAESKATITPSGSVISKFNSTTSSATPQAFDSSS
Text: FIG. 2. […] (A) Diagrams of MMRN2 truncation mutants, showing the elastin microfibril interface (EMI) domain, coiled-coil (CC) domain and complement related C1q domain. The minimal CLEC14A binding fragment is highlighted in black. (B,C) HEK293T were transfected with truncation mutants. Lysates were far western blotted under reduced conditions with CLEC14A extracellular domain fused to an Fc tag (CLEC14A-ECD-Fc) and western blotted by use of His tag antibodies. (B) The smallest binding fragment was identified as MMRN2⁴⁸⁷⁻⁸²⁰, MMRN2^FL fails to bind CLEC14A-ECD-Fc. (C) The smallest MMRN2 fragment binding CLEC14A is MMRN2⁵³⁰⁻⁶²⁴. (D) MMRN2⁴⁹⁵⁻⁶⁷⁴ and MMRN2⁴⁹⁵⁻⁶⁰³ bind to streptavidin under reducing conditions after biotinylation. (E) Flow cytometry histograms of HEK293T transfected with GFP tagged CTLD group 14 family members and stained with biotinylated MMRN2⁴⁹⁵⁻⁶⁷⁴ (grey line), confirming binding to CLEC14A and CD93 but not thrombomodulin. Streptavidin-PE was used as a control for background binding (grey shaded).
as §1, with “material.” for “material. Standard protocols for western blotting were used.”

B1: mouse MMRN2^495-678 (expressed in HEK293T, His tag) (ligand)
chain: QRVNSDVDVAPEGHRDVMHTLEETQVSLDEQHQLDGSSLQALQSTVDAMSSAMDAYRGEGERARAERARIRSQLRALDHAVEALKTAANGTRKEIRLLHGSFTALLEDALRHQAVLAALFGEEMIDEMSEEAPRPLPLDYEQIRLALQDAASGLQEQAIGWEDLATRVEALEKAAGGFVEQHPQ
notes: not shown: C-terminal BirA and His tags of vector pHL-Avitag3
- binding result [1]: binds

B4: CD93 (human, wild type, C-terminal GFP tag, expressed in HEK293T) (receptor)
chain: TGADTEAVVCVGTACYTAHSGKLSAAEAQNHCNQNGGNLATVKSKEEAQHVQRVLAQLLRREAALTARMSKFWIGLQREKGKCLDPSLPLKGFSWVGGGEDTPYSNWHKELRNSCISKRCVSLLLDLSQPLLPSRLPKWSEGPCGSPGSPGSNIEGFVCKFSFKGMCRPLALGGPGQVTYTTPFQTTSSSLEAVPFASAANVACGEGDKDETQSHYFLCKEKAPDVFDWGSSGPLCVSPKYGCNFNNGGCHQDCFEGGDGSFLCGCRPGFRLLDDLVTCASRNPCSSSPCRGGATCVLGPHGKNYTCRCPQGYQLDSSQLDCVDVDECQDSPCAQECVNTPGGFRCECWVGYEPGGPGEGACQDVDECALGRSPCAQGCTNTDGSFHCSCEEGYVLAGEDGTQCQDVDECVGPGGPLCDSLCFNTQGSFHCGCLPGWVLAPNGVSCTMGPVSLGPPSGPPDEEDKGEKEGSTVPRAATASPTRGPEGTPKATPTTSRPSLSSDAPITSAPLKMLAPSGSPGVWREPSIHHATAASGPQEPAGGDSSVATQNNDGTDGQKLLLFYILGTVVAILLLLALALGLLVYRKRRAKREEKKEKKPQNAADSYSWVPERAESRAMENQYSPTPGTDC
notes: On cells in flow cytometry; as non-reduced HEK293T lysate in far western blots; also called CD93 wild type (wt); cell surface expressed CD93; not shown: C-terminal green fluorescent protein (GFP) tag from vector pEGFP-N1
- binding result [2]: binds

Results, then the binder that gave them:

- binding result [2]: binds
B2: CLEC14A (human, wild type, C-terminal GFP tag, expressed in HEK293T) (receptor)
chain: EHPTADRAGCSASGACYSLHHATMKRQAAEEACILRGGALSTVRAGAELRAVLALLRAGPGPGGGSKDLLFWVALERRRSHCTLENEPLRGFSWLSSDPGGLESDTLQWVEEPQRSCTARRCAVLQATGGVEPAGWKEMRCHLRANGYLCKYQFEVLCPAPRPGAASNLSYRAPFQLHSAALDFSPPGTEVSALCRGQLPISVTCIADEIGARWDKLSGDVLCPCPGRYLRAGKCAELPNCLDDLGGFACECATGFELGKDGRSCVTSGEGQPTLGGTGVPTRRPPATATSPVPQRTWPIRVDEKLGETPLVPEQDNSVTSIPEIPRWGSQSTMSTLQMSLQAESKATITPSGSVISKFNSTTSSATPQAFDSSSAVVFIFVSTAVVVLVILTMTVLGLVKLCFHESPSSQPRKESMGPPGLESDPEPAALGSSSAHCTNNGVKVGDCDLRDRAEGALLAESPLGSSDA
notes: On cells in flow cytometry; as non-reduced HEK293T lysate in far western blots; also called CLEC14A wt; cell surface expressed CLEC14A; not shown: C-terminal green fluorescent protein (GFP) tag from vector pEGFP-N1

- binding result [3]: binds
- binding result [4]: binds
B3: MMRN2^495-674 (human, expressed in HEK293T, His tag) (ligand)
chain: QKLYLDLDVIREGQRDATRALEETQVSLDERRQLDGSSLQALQNAVDAVSLAVDAHKAEGERARAATSRLRSQVQALDDEVGALKAAAAEARHEVRQLHSAFAALLEDALRHEAVLAALFGEEVLEEMSEQTPGPLPLSYEQIRVALQDAASGLQEQALGWDELAARVTALEQASEPPRP
notes: as for B1
